Numbering of substitutions follows the chain as printed.
B1: 8ANC195 (antibody, V domains shown)
VH: QIHLVQSGTEVKKPGSSVTVSCKAYGVNTFGLYAVNWVRQAPGQSLEYIGQIWRWKSSASHHFRGRVLISAVDLTGSSPPISSLEIKNLTSDDTAVYFCTTTSTYDKWSGLHHDGVMAFSSWGQGTLISVSA
VL: DIQMTQSPSTLAASIGGTVRVSCRASQSITGNWVAWYQQRPGKAPRLLIYRGAALLGGVPSRFSGSAAGTDFTLTIGNLQAEDFGTFYCQQYDTYPGTFGQGTKVEVKR
notes: also called 8ANC195HC; 8ANC195KC
B2: 8ANC131 (antibody, V domains shown)
VH: QGQLVQSGGGLKKPGTSVTISCLASEYTFNEFVIHWIRQAPGQGPLWLGLIKRSGRLMTAYNFQDRLRLRRDRSTGTVFMELRGLRPDDTAVYYCARDGLGEVAPDYRYGIDVWGQGSTVIVTA
VL: EIVLTQSPATLSLSPGERATLSCRASQGLNFVVWYQQKRGQAPRLLIHAPSGRAPGVPDRFSARGSGTEFSLVISSVEPDDFAIYYCQEYSSTPYNFGPGTRVDRKR
notes: also called 8ANC131HC; 8ANC131KC
B3: 8ANC134 (antibody, V domains shown)
VH: B2 VH with L11V, L46V, A60S, N62K, R68S, P87L, D106A, R108L, V113A, A124S
VL: B2 VL with R39G, A49G, S51T, G52D, I84L
notes: also called 8ANC134HC; 8ANC134KC
B4: 3BNC60 (antibody, V domains shown)
VH: QVHLSQSGAAVTKPGASVRVSCEASGYKISDHFIHWWRQAPGQGLQWVGWINPKTGQPNNPRQFQGRVSLTRQASWDFDTYSFYMDLKAVRSDDTAIYFCARQRSDFWDFDVWGSGTQVTVSSASTKG
VL: DIQMTQSPSSLSARVGDTVTITCQANGYLNWYQQRRGKAPKLLIYDGSKLERGVPARFSGRRWGQEYNLTINNLQPEDVATYFCQVYEFIVPGTRLDLKRTVAA
notes: also called 3BNC60HC; 3BNC60KC
B5: 3BNC117 (antibody, V domains shown)
VH: B4 VH with H3Q, S5L, K28N, S30R, H32Y, Q73H, Y81F, V90L, I97V, F107Y
VL: DIQMTQSPSSLSASVGDTVTITCQANGYLNWYQQRRGKAPKLLIYDGSKLERGVPSRFSGRRWGQEYNLTINNLQPEDIATYFCQVYEFVVPGTRLDLKRTVAAPSVFIFPPSD
notes: also called 3BNC117HC; 3bnc117kc
B6: 12A21 (antibody, V domains shown)
VH: SQHLVQSGTQVKKPGASVRVSCQASGYTFTNYILHWWRQAPGQGLEWMGLIKPVFGAVNYARQFQGRIQLTRDIYREIAFLDLSGLRSDDTAVYYCARDESGDDLKWHLHPWGQGTQVIVSP
VL: DIQMTQSPSSLSASVGDRVTINCQAGQGIGSSLNWYQKKPGRAPKLLVHGASNLQRGVPSRFSGSGFHTTFTLTISSLQPDDVATYFCAVFQWFGPGTKVDIKR
notes: also called 12A21HC; 12a21kc
B7: NIH45-46 (antibody, V domains shown)
VH: QVRLSQSGGQMKKPGESMRLSCRASGYEFLNCPINWIRLAPGRRPEWMGWLKPRGGAVNYARKFQGRVTMTRDVYSDTAFLELRSLTSDDTAVYFCTRGKYCTARDYYNWDFEH
VL: EIVLTQSPATLSLSPGETAIISCRTSQSGSLAWYQQRPGQAPRLVIYSGSTRAAGIPDRFSGSRWGADYNLSISNLESGDFGVYYCQQYEFFG
B8: 3BNC55 (antibody, V domains shown)
VH: QVQLVQSGTAVKRPGASVRVSCQASGYTFTDYFIYWWRQAPGQGLEWLGWINPLTSQPSYPSRFQGRLTLTRDTFDEMLYMDLRGLRSDDTGIYFCARRHSDYCDFDIWGSGTQIIVSS
VL: DIQMTQSPSSLSASVGDKVTITCQTSAGYLNWYQQRRGRAPKLLMYDGSRLVTGVPSRFSGRRWGTQYNLTIGSLQPEDIATYYCQVYEFFGPGTRLDLKS
notes: also called 3BNC55HC; 3BNC55KC
B9: 3BNC66 (antibody, V domains shown)
VH: QVQLVQSGAALKKPGASLRISCQTYGYKFTDHLIYWWRQAPGQGLEWIGWIKPETGQPSYSYRFQGRVSLTRDTFEEIAFMDLRGLRSDDTAIYFCARRHTDYCVFDVWGSGSQIIVSS
VL: B8 VL with K18T, S26N, A27K, R50K, F59L, S101R
notes: also called 3BNC66HC; 3bnc66kc
B10: 3BNC156 (antibody, V domains shown)
VH: B9 VH with A79V, T101S, V105D, S111G, I115V
VL: B8 VL with K18T, S26N, A27K, R36K, R50K, F59L, S101R
notes: also called 3BNC156HC; 3bnc156kc
B11: 12A12 (antibody, V domains shown)
VH: SQQLVQSGTQVKKPGASVRISCQASGYSFTDYVLHWWRQAPGQGLEWMGWIKPVYGARNYARRFQGRINFDRDIYREIAFMDLSGLRSDDTALYFCARDGSGDDTSWHLDPWGQGTLVIVSA
VL: DIQMTQSPSSLSASVGDRVTITCQAGQGIGSSLQWYQQKPGKAPKLLVHGASNLHRGVPSRFSGSGFHTTFSLTISGLQRDDFATYFCAVLEFFGPGTKVEIKR
notes: also called 12A12HC; 12a12kc
B12: 1B2530 (antibody, V domains shown)
VH: QVRLEQSGAAMRKPGASVTLSCQASGYNFVKYIIHWVRQKPGLGFEWVGMIDPYRGRPWSAHKFQGRLSLSRDTSMEILYMTLTSLKSDDTATYFCARAEAASDSHSRPIMFDHWGQGSRVTVSS
VL: QSALTQPPSASGAPGQRVTISCSGGPSNVGGNYVYWYRQFPGTAPTLLILRDDQRPSGVPDRFSASKSGNSASLAISGLRPDDEGFYFCATYDSDGSIRLFGGGTALTVLS
notes: also called LSSB2530HC; LSSB2530LC
B13: 1NC9 (antibody, V domains shown)
VH: QVRLVQSGAQLKKPGASVTVSCEASGYNFVNYIINWVRQTPGRSFEWVGMIDPRRGRPWSAQKFQGRLTLTRDIDSEKLYMHLSGLRGDDTAVYYCARQDSDFHDGHGHTLRGMFDSWGQGSPVTVSS
VL: QVLSVSGTPGQRVIISCSGTSSNVGGNLVSWYQHLPGAAPRLLIHRDDQRPSGVPDRFSGSKSGNSASLVISGLRSDDEADYFCAAYDSTFSLPVFGGGTRLTVLS
notes: also called LSSNEC9HC; LSSNEC9LC

Target: 2CC-core
Experiment: SPR, antigen on chip, IgG injected

Binder	Kd	koff	kon
B1	54.7 nM	0.00132 s⁻¹	24100 M⁻¹ s⁻¹
B2	66.1 nM	0.00323 s⁻¹	48800 M⁻¹ s⁻¹
B3	46.1 nM	0.000957 s⁻¹	20800 M⁻¹ s⁻¹
B4	54.5 nM	0.00164 s⁻¹	30200 M⁻¹ s⁻¹
B5	36.8 nM		
B6	1.81 nM	0.00033 s⁻¹	182000 M⁻¹ s⁻¹
B7	4.4 nM	0.000494 s⁻¹	112000 M⁻¹ s⁻¹
B8	25.7 nM		
B9	33.6 nM	0.00133 s⁻¹	39600 M⁻¹ s⁻¹
B10	81.2 nM	0.00153 s⁻¹	18800 M⁻¹ s⁻¹
B11	0.0269 nM	1.7e-06 s⁻¹	63300 M⁻¹ s⁻¹
B12	5.9 nM	0.000402 s⁻¹	68300 M⁻¹ s⁻¹
B13	4.61 nM	0.000236 s⁻¹	51100 M⁻¹ s⁻¹

Reference: patent US20240254206A1 (ROCKEFELLER UNIVERSITY, published 2024)
